Results from patent EP4673749A1 (dated 2026).

T1: Pro-C3 target sequence CPTGPQNYSP (C-terminal neo-epitope of PIIINP, residues 144-153 of the alpha1 chain) (human)
T1 construct: Synthetic peptide with free C-terminus (-COOH)
T1 peptide: CPTGPQNYSP

T2: non-sense peptide GSPGKDGVRG
T2 construct: Control peptide
T2 peptide: GSPGKDGVRG

T3: elongated peptide CPTGPQNYSPQ (human)
T3 construct: the peptide tested is printed with Pro at that position
T3 peptide: CPTGPQNYSPQ

T4: elongated peptide KPGVISVMGTA
T4 construct: Synthetic peptide, Chinese Peptide Company
T4 peptide: KPGVISVMGTA

T5: truncated peptide KPGVISVMG
T5 construct: Synthetic peptide, American Peptide Company
T5 peptide: KPGVISVMG

T6: PRO-C6 sequence KPGVISVMGT (last 10 amino acids of the type VI collagen alpha3 chain, 3168-3177)
T6 construct: also called selection peptide; immunogenic peptide
T6 peptide: KPGVISVMGT


How the values were obtained:
[1] = target: T1, Pro-C3 target sequence CPTGPQNYSP …; assay: antibody characterization with peptides (ELISA, as previously described)
[2] = target: T2, non-sense peptide GSPGKDGVRG; assay: as above
[3] = target: T3, elongated peptide CPTGPQNYSPQ; assay: as above
[4] = target: T4, elongated peptide KPGVISVMGTA; assay: hybridoma clone screening with peptides
[5] = target: T5, truncated peptide KPGVISVMG; assay: hybridoma clone screening with peptides
[6] = target: T6, PRO-C6 sequence KPGVISVMGT (last 10 …); assay: hybridoma clone screening with peptides

binding result [1] | binding result [2] | binding result [3] | binding result [4] | binding result [5] | binding result [6] | Binder
binds | no binding | no binding | – | – | – | Pro-C3 monoclonal antibody (monoclonal antibody NB61N-62) (antibody, mouse IgG2a, kappa, V domains shown) VH: EVQLQQSGPEVLKPGASVKMSCKASGYTFINYVIHWLKQKAGQGPEWIGYMNPYNDVPKNNAKFRGKARLTSDRSSTTAYMELNSLTSEDSAVYYCARGGFFGPLSYWGQGTLVTVSA VL: DVLMTQTPLSLSVSLGDQASISCRSSQNIVYSNGDTYFEWYLQKPGQSPKLLIYKVSQRFSGVPDRFSGSGSGTDFTLKISRVETEDLGVYYCFQGAHDPPAFGGGTKLELKR
– | – | – | no binding | no binding | binds | PRO-C6 monoclonal antibody 10A3 (antibody, mouse IgG1, kappa, V domains shown, Mouse IgG1 / kappa; also called monoclonal antibody specific for PRO-C6) VH: EVQLQQSGPVMVKPGTSVKTSCKASGYTFTDFNMNWVKQSHGKSLEWIGAINPHNGATSYNQKFSGKATLTVDKSSSTAYMELNSLTSDDSAVYYCARWGNGKNSWGQGTTLTVSS VL: DVVMTQTPLSLPVNLGDQASISCRSSQRIVHSNGITFLEWYLQKPGQSPKLLIYRVSNRFSGVPDRFSGSGSGTDFTLKISRVEAEDLGLYYCFQGSHVPLTFGAGTRLELKR
